Residue numbers refer to the chain shown, from its start. Names and notes keep the numbering of the source.
T1: Human CD3eg linker (human)
T1 construct: Single-chain construct; also called recombinant human CD3
T1 chain: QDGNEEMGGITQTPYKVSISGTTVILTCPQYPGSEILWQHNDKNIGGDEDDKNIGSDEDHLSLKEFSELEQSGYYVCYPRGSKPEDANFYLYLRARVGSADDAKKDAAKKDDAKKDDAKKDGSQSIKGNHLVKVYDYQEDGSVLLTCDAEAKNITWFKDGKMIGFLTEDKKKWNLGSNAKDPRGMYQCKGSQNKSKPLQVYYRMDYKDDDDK

B1: H183/L072 VL Q24T (antibody, name in Kabat numbering, V domains shown)
VH: QVQLVESGGGLVQPGRSLRLSCAASGFTFSNAWMHWVRQAPGKGLEWVAQIKDKGNAYAAYYAPSVKGRFTISRDDSKNSIYLQMNSLKTEDTAVYYCHYVHYASASTVLPAFGVDAWGQGTTVTVSS
VL: DIVMTQSPLSLPVTPGEPASISCTASQELVHMNRNTYLHWYQQKPGQAPRLLIYKVSNRFPGVPDRFSGSGSGTDFTLKISRVEAEDVGVYYCAQGTSVPFTFGQGTKLEIK
B2: H183/L072 VL Q27R (antibody, name in Kabat numbering, V domains shown)
VH: B1 VH
VL: B1 VL with T24Q, Q27R
B3: H183/L072 VL R29Y (antibody, name in Kabat numbering, V domains shown)
VH: B1 VH
VL: B1 VL with T24Q, R34Y
B4: H183/L072 VL Q90H (antibody, name in Kabat numbering, V domains shown)
VH: B1 VH
VL: B1 VL with T24Q, Q95H
B5: H183/L072 VL R29I (antibody, name in Kabat numbering, V domains shown)
VH: B1 VH
VL: B1 VL with T24Q, R34I
B6: H183/L072 VL Q24Y (antibody, name in Kabat numbering, V domains shown)
VH: B1 VH
VL: B1 VL with T24Y
B7: H183/L072 VL R29L (antibody, name in Kabat numbering, V domains shown)
VH: B1 VH
VL: B1 VL with T24Q, R34L
B8: H183/L072 VL Q27T (antibody, name in Kabat numbering, V domains shown)
VH: B1 VH
VL: B1 VL with T24Q, Q27T
B9: H183/L072 VL Q27N (antibody, name in Kabat numbering, V domains shown)
VH: B1 VH
VL: B1 VL with T24Q, Q27N
B10: H183/L072 VL Q24V (antibody, name in Kabat numbering, V domains shown)
VH: B1 VH
VL: B1 VL with T24V
B11: H183/L072 VL R29F (antibody, name in Kabat numbering, V domains shown)
VH: B1 VH
VL: B1 VL with T24Q, R34F
B12: H183/L072 VL R29A (antibody, name in Kabat numbering, V domains shown)
VH: B1 VH
VL: B1 VL with T24Q, R34A
B13: H183/L072 VL R29K (antibody, name in Kabat numbering, V domains shown)
VH: B1 VH
VL: B1 VL with T24Q, R34K
B14: H183/L072 VL R29E (antibody, name in Kabat numbering, V domains shown)
VH: B1 VH
VL: B1 VL with T24Q, R34E
B15: H183/L072 VL Q27I (antibody, name in Kabat numbering, V domains shown)
VH: B1 VH
VL: B1 VL with T24Q, Q27I
B16: H183/L072 VL Q27Y (antibody, name in Kabat numbering, V domains shown)
VH: B1 VH
VL: B1 VL with T24Q, Q27Y
B17: H183/L072 VL Q27V (antibody, name in Kabat numbering, V domains shown)
VH: B1 VH
VL: B1 VL with T24Q, Q27V
B18: H183/L072 VL Q27W (antibody, name in Kabat numbering, V domains shown)
VH: B1 VH
VL: B1 VL with T24Q, Q27W
B19: H183/L072 VL Q90T (antibody, name in Kabat numbering, V domains shown)
VH: B1 VH
VL: B1 VL with T24Q, Q95T
B20: H183/L072 VL R29V (antibody, name in Kabat numbering, V domains shown)
VH: B1 VH
VL: B1 VL with T24Q, R34V
B21: H183/L072 VL Q27S (antibody, name in Kabat numbering, V domains shown)
VH: B1 VH
VL: B1 VL with T24Q, Q27S
B22: H183/L072 VL Q27L (antibody, name in Kabat numbering, V domains shown)
VH: B1 VH
VL: B1 VL with T24Q, Q27L
B23: H183/L072 VL R29G (antibody, name in Kabat numbering, V domains shown)
VH: B1 VH
VL: B1 VL with T24Q, R34G
B24: H183/L072 VL R54A (antibody, name in Kabat numbering, V domains shown)
VH: B1 VH
VL: B1 VL with T24Q, R59A
B25: H183/L072 VL Q24W (antibody, name in Kabat numbering, V domains shown)
VH: B1 VH
VL: B1 VL with T24W
B26: H183/L072 VL Q90D (antibody, name in Kabat numbering, V domains shown)
VH: B1 VH
VL: B1 VL with T24Q, Q95D
B27: H183/L072 VL Q27K (antibody, name in Kabat numbering, V domains shown)
VH: B1 VH
VL: B1 VL with T24Q, Q27K
B28: H183/L072 VL Q27G (antibody, name in Kabat numbering, V domains shown)
VH: B1 VH
VL: B1 VL with T24Q, Q27G
B29: H183/L072 VL Q27F (antibody, name in Kabat numbering, V domains shown)
VH: B1 VH
VL: B1 VL with T24Q, Q27F
B30: H183/L072 VL R29H (antibody, name in Kabat numbering, V domains shown)
VH: B1 VH
VL: B1 VL with T24Q, R34H
B31: H183/L072 VL R29D (antibody, name in Kabat numbering, V domains shown)
VH: B1 VH
VL: B1 VL with T24Q, R34D
B32: H183/L072 VL Q27A (antibody, name in Kabat numbering, V domains shown)
VH: B1 VH
VL: B1 VL with T24Q, Q27A
B33: H183/L072 VL Q27H (antibody, name in Kabat numbering, V domains shown)
VH: B1 VH
VL: B1 VL with T24Q, Q27H
B34: H183/L072 VL Q27D (antibody, name in Kabat numbering, V domains shown)
VH: B1 VH
VL: B1 VL with T24Q, Q27D
B35: H183/L072 VL R29S (antibody, name in Kabat numbering, V domains shown)
VH: B1 VH
VL: B1 VL with T24Q, R34S
B36: H183/L072 VL R29Q (antibody, name in Kabat numbering, V domains shown)
VH: B1 VH
VL: B1 VL with T24Q, R34Q
B37: H183/L072 VL Q27M (antibody, name in Kabat numbering, V domains shown)
VH: B1 VH
VL: B1 VL with T24Q, Q27M
B38: H183/L072 VL Q90K (antibody, name in Kabat numbering, V domains shown)
VH: B1 VH
VL: B1 VL with T24Q, Q95K
B39: H183/L072 VL Q27E (antibody, name in Kabat numbering, V domains shown)
VH: B1 VH
VL: B1 VL with T24Q, Q27E
B40: H183/L072 VL Q90E (antibody, name in Kabat numbering, V domains shown)
VH: B1 VH
VL: B1 VL with T24Q, Q95E
B41: H183/L072 VL R29T (antibody, name in Kabat numbering, V domains shown)
VH: B1 VH
VL: B1 VL with T24Q, R34T
B42: H183/L072 VL R29N (antibody, name in Kabat numbering, V domains shown)
VH: B1 VH
VL: B1 VL with T24Q, R34N
B43: H183/L072 VL R29W (antibody, name in Kabat numbering, V domains shown)
VH: B1 VH
VL: B1 VL with T24Q, R34W
B44: H183/L072 VL R29M (antibody, name in Kabat numbering, V domains shown)
VH: B1 VH
VL: B1 VL with T24Q, R34M
B45: H183/L072 VL Q90S (antibody, name in Kabat numbering, V domains shown)
VH: B1 VH
VL: B1 VL with T24Q, Q95S

Molecular target: T1, Human CD3eg linker
Assay: SPR; fold vs parent H183/L072

Q: B1 was tested. Which “fold change of affinity” value did it give?
A: 1.1 fold

Q: How did the “fold change of affinity” value turn out when B2 was run?
A: 1 fold

Q: How did the “fold change of affinity” value turn out when B3 was run?
A: 0.5 fold

Q: B4 was tested. Which “fold change of affinity” value did it give?
A: 0.1 fold

Q: With B5 as the binder, how does the “fold change of affinity” value read?
A: 0.2 fold

Q: B6 was tested. Which “fold change of affinity” value did it give?
A: 1 fold

Q: With B7 as the binder, how does the “fold change of affinity” value read?
A: 0.8 fold

Q: With B8 as the binder, how does the “fold change of affinity” value read?
A: 1 fold

Q: For B9, which “fold change of affinity” value is on record?
A: 1 fold

Q: Which “fold change of affinity” value does the source give for B10 here?
A: 1.2 fold

Q: Which “fold change of affinity” value does the source give for B11 here?
A: 0.6 fold

Q: How did the “fold change of affinity” value turn out when B12 was run?
A: 0.6 fold

Q: With B13 as the binder, how does the “fold change of affinity” value read?
A: 1.1 fold

Q: How did the “fold change of affinity” value turn out when B14 was run?
A: 0.3 fold

Q: Which “fold change of affinity” value does the source give for B15 here?
A: 0.8 fold

Q: For B16, which “fold change of affinity” value is on record?
A: 0.9 fold

Q: B17 was tested. Which “fold change of affinity” value did it give?
A: 0.9 fold

Q: B18 was tested. Which “fold change of affinity” value did it give?
A: 0.7 fold

Q: How did the “fold change of affinity” value turn out when B19 was run?
A: 0 fold

Q: With B20 as the binder, how does the “fold change of affinity” value read?
A: 0.3 fold

Q: Which “fold change of affinity” value does the source give for B21 here?
A: 1.1 fold

Q: For B22, which “fold change of affinity” value is on record?
A: 1 fold

Q: How did the “fold change of affinity” value turn out when B23 was run?
A: 1.2 fold

Q: B24 was tested. Which “fold change of affinity” value did it give?
A: 1 fold

Q: Which “fold change of affinity” value does the source give for B25 here?
A: 1.1 fold

Q: B26 was tested. Which “fold change of affinity” value did it give?
A: 0 fold

Q: How did the “fold change of affinity” value turn out when B27 was run?
A: 0.8 fold

Q: How did the “fold change of affinity” value turn out when B28 was run?
A: 1 fold

Q: How did the “fold change of affinity” value turn out when B29 was run?
A: 0.9 fold

Q: With B30 as the binder, how does the “fold change of affinity” value read?
A: 0.8 fold

Q: B31 was tested. Which “fold change of affinity” value did it give?
A: 0.3 fold

Q: For B32, which “fold change of affinity” value is on record?
A: 1.2 fold

Q: Which “fold change of affinity” value does the source give for B33 here?
A: 1.2 fold

Q: Which “fold change of affinity” value does the source give for B34 here?
A: 1.1 fold

Q: How did the “fold change of affinity” value turn out when B35 was run?
A: 0.8 fold

Q: How did the “fold change of affinity” value turn out when B36 was run?
A: 0.7 fold

Q: How did the “fold change of affinity” value turn out when B37 was run?
A: 1.2 fold

Q: How did the “fold change of affinity” value turn out when B38 was run?
A: 0 fold

Q: How did the “fold change of affinity” value turn out when B39 was run?
A: 1.1 fold

Q: Which “fold change of affinity” value does the source give for B40 here?
A: 0.4 fold

Q: Which “fold change of affinity” value does the source give for B41 here?
A: 0.8 fold

Q: B42 was tested. Which “fold change of affinity” value did it give?
A: 0.3 fold

Q: Which “fold change of affinity” value does the source give for B43 here?
A: 0.5 fold

Q: Which “fold change of affinity” value does the source give for B44 here?
A: 0.7 fold

Q: How did the “fold change of affinity” value turn out when B45 was run?
A: 0 fold

From patent publication US20210388087A1 (Chugai, published 2021)
